From the supplement of paper PMC9112550, “Optimization of the antimicrobial peptide Bac7 by deep mutational scanning” (BMC Biology, 2022)

tested on: Escherichia coli TOP10; experiment: shrunken log2 fold change of peptide-encoding DNA abundance (4.5 h post-induction vs induction); higher = less antimicrobial activity (less host growth inhibition); conditions: time post-induction: 4.5 h; library: site-saturation at positions 5, 18, 19, 20
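Also: peptides expressed intracellularly from a pBAD plasmid library in pooled LB shake-flask culture, induced with 0.3% L-arabinose, DNA abundance read by NGS, three biological replicates, DESeq2 with apeglm shrinkage.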

Sequence | shrunken log2 fold change
RRIRWRPPRLPRPRPRPSFSPRP | -0.286
RRIRERPPRLPRPRPRPGHIPRP | -0.0236
RRIRRRPPRLPRPRPRPYKYPRP | -0.415
RRIRARPPRLPRPRPRPTETPRP | 1.11
RRIRPRPPRLPRPRPRPEFMPRP | 0.0793
RRIRTRPPRLPRPRPRPAYRPRP | -0.111
RRIRERPPRLPRPRPRPDMVPRP | 0.0162
RRIRGRPPRLPRPRPRPSMIPRP | 0.267
RRIRARPPRLPRPRPRPRNWPRP | 0.388
RRIRQRPPRLPRPRPRPHHLPRP | -0.122
RRIRGRPPRLPRPRPRPWHLPRP | -0.188
RRIRQRPPRLPRPRPRPLPHPRP | 0.137
RRIRGRPPRLPRPRPRPRAPPRP | 1.05
RRIRVRPPRLPRPRPRPRRAPRP | 0.751
RRIRPRPPRLPRPRPRPTSQPRP | 0.0453
RRIRDRPPRLPRPRPRPAHHPRP | 0.113
RRIRKRPPRLPRPRPRPRPQPRP | 0.865
RRIRVRPPRLPRPRPRPFWGPRP | -0.0605
RRIRSRPPRLPRPRPRPHGKPRP | -0.18
RRIRERPPRLPRPRPRPSCPPRP | -0.361
RRIRWRPPRLPRPRPRPWQQPRP | -0.01
RRIRNRPPRLPRPRPRPGSCPRP | -0.247

Sequence | shrunken log2 fold change
RRIRPRPPRLPRPRPRPWMEPRP | -0.0134
RRIRERPPRLPRPRPRPHPCPRP | -0.0414
RRIRSRPPRLPRPRPRPSSQPRP | 0.0487
RRIRGRPPRLPRPRPRPDTYPRP | 0.241
RRIRIRPPRLPRPRPRPWWLPRP | -0.0152
RRIRPRPPRLPRPRPRPAECPRP | -0.223
RRIRIRPPRLPRPRPRPTPHPRP | 0.788
RRIRLRPPRLPRPRPRPSVHPRP | -0.61
RRIRVRPPRLPRPRPRPICVPRP | -0.0314
RRIRIRPPRLPRPRPRPENWPRP | -0.00191
RRIRYRPPRLPRPRPRPPNCPRP | -0.236
RRIRERPPRLPRPRPRPFKRPRP | 0.0596
RRIRFRPPRLPRPRPRPTHGPRP | -0.0666
RRIRFRPPRLPRPRPRPCIKPRP | -0.0867
RRIRPRPPRLPRPRPRPTMMPRP | -0.216
RRIRKRPPRLPRPRPRPHEHPRP | 0.0272
RRIRMRPPRLPRPRPRPNARPRP | 0.323
RRIRQRPPRLPRPRPRPGDSPRP | -0.0573
RRIRIRPPRLPRPRPRPGLTPRP | -0.0421
RRIRNRPPRLPRPRPRPAGIPRP | -0.0145
RRIRRRPPRLPRPRPRPLDYPRP | -0.324
RRIRGRPPRLPRPRPRPRGYPRP | 0.382

Sequence | shrunken log2 fold change
RRIRMRPPRLPRPRPRPMYWPRP | -0.169
RRIRMRPPRLPRPRPRPHFLPRP | -0.235
RRIRTRPPRLPRPRPRPVTSPRP | -0.0276
RRIRSRPPRLPRPRPRPVSLPRP | -0.122
RRIRKRPPRLPRPRPRPFDEPRP | 0.0269
RRIRARPPRLPRPRPRPSNCPRP | -0.285
RRIRMRPPRLPRPRPRPLIEPRP | 1.14
RRIRRRPPRLPRPRPRPHCQPRP | 0.17
RRIRERPPRLPRPRPRPVIYPRP | -0.248
RRIRARPPRLPRPRPRPDDFPRP | -0.013
RRIRPRPPRLPRPRPRPQSNPRP | -0.285
RRIRWRPPRLPRPRPRPDTCPRP | -0.0059
RRIRPRPPRLPRPRPRPMGIPRP | 0.21
RRIRSRPPRLPRPRPRPFCEPRP | -0.0573
RRIRQRPPRLPRPRPRPICAPRP | 0.36
RRIRLRPPRLPRPRPRPNDHPRP | -0.43
RRIRQRPPRLPRPRPRPDTDPRP | -0.00927
RRIRTRPPRLPRPRPRPKLKPRP | -0.0522
RRIRDRPPRLPRPRPRPVTGPRP | 0.148
RRIRMRPPRLPRPRPRPFHLPRP | -0.0432
RRIRSRPPRLPRPRPRPRVMPRP | -0.171
RRIRQRPPRLPRPRPRPSDAPRP | 0.147

Sequence | shrunken log2 fold change
RRIRCRPPRLPRPRPRPWGQPRP | -0.00973
RRIRSRPPRLPRPRPRPWCQPRP | -0.119
RRIRIRPPRLPRPRPRPPGMPRP | 0.238
RRIRHRPPRLPRPRPRPGEQPRP | 0.0974
RRIRRRPPRLPRPRPRPHLSPRP | 0.112
RRIRTRPPRLPRPRPRPIEIPRP | -0.0171
RRIRMRPPRLPRPRPRPFDAPRP | 0.396
RRIRWRPPRLPRPRPRPLQVPRP | -0.125
RRIRKRPPRLPRPRPRPQLRPRP | 0.2
RRIRCRPPRLPRPRPRPWQVPRP | 0.00859
RRIRRRPPRLPRPRPRPLMAPRP | 0.312
RRIRDRPPRLPRPRPRPIMHPRP | -0.0198
RRIRGRPPRLPRPRPRPEAWPRP | 1.91
RRIRWRPPRLPRPRPRPDGIPRP | 0.151
RRIRRRPPRLPRPRPRPSGQPRP | 0.306
RRIRYRPPRLPRPRPRPTDNPRP | -1.05
RRIRMRPPRLPRPRPRPAQQPRP | 0.612
RRIRVRPPRLPRPRPRPNNSPRP | -0.309
RRIRKRPPRLPRPRPRPEAAPRP | 1.8
RRIRGRPPRLPRPRPRPYPQPRP | 0.12
RRIRWRPPRLPRPRPRPPQFPRP | -0.108
RRIRIRPPRLPRPRPRPGYGPRP | -0.309

Sequence | shrunken log2 fold change
RRIRHRPPRLPRPRPRPAVVPRP | -0.182
RRIRERPPRLPRPRPRPNQCPRP | -0.00674
RRIRSRPPRLPRPRPRPLCGPRP | 0.0948
RRIRKRPPRLPRPRPRPMSIPRP | -0.0141
RRIRTRPPRLPRPRPRPTRYPRP | 0.228
RRIRERPPRLPRPRPRPQKHPRP | -0.608
RRIRIRPPRLPRPRPRPINQPRP | -0.345
RRIRTRPPRLPRPRPRPCEQPRP | 0.0027
RRIRHRPPRLPRPRPRPNLGPRP | -0.00355
RRIRARPPRLPRPRPRPIWGPRP | 0.302
RRIRSRPPRLPRPRPRPRQDPRP | 0.127
RRIRDRPPRLPRPRPRPSRWPRP | 0.0623
RRIRIRPPRLPRPRPRPWLIPRP | 0.0717
RRIRMRPPRLPRPRPRPLRAPRP | 2.97
RRIRTRPPRLPRPRPRPKRSPRP | 0.207
RRIRIRPPRLPRPRPRPHISPRP | -0.0489
RRIRKRPPRLPRPRPRPVGFPRP | 0.485
RRIRQRPPRLPRPRPRPHYIPRP | -0.298
RRIRSRPPRLPRPRPRPDPQPRP | 0.282
RRIRGRPPRLPRPRPRPLRVPRP | 1
RRIRNRPPRLPRPRPRPISPPRP | -0.13
